Assay results as given in patent US20210269546A1 (MOMENTA PHARMACEUTICALS, published 2021).

Legend:
[1] = biological target: T1, cynomolgus monkey CD38 (CHO cells stably expressing cyno CD38) (cynomolgus monkey, UniProt Q5VAN0 1-301); test: flow cytometry, VivoTag645-labeled, CHO cells stably expressing cyno CD38, 4 °C, 1 hour, gMFI
T1 construct: whole, on cells
Experimental: (§1) FIG. 26. […] Extent of cell surface binding was assessed by flow cytometry. […]

[2] = biological target: T2, human CD38 on the cell surface (Raji and other human tumor cell lines) (human, UniProt P28907 1-300); test: flow cytometry, VivoTag645-labeled, human CD38 expressing Raji tumor cells, 4 °C, 1 hour, gMFI
T2 construct: whole, on cells; also called cell surface CD38
Experimental: as §1

T1 sequence (Q5VAN0 whole entry): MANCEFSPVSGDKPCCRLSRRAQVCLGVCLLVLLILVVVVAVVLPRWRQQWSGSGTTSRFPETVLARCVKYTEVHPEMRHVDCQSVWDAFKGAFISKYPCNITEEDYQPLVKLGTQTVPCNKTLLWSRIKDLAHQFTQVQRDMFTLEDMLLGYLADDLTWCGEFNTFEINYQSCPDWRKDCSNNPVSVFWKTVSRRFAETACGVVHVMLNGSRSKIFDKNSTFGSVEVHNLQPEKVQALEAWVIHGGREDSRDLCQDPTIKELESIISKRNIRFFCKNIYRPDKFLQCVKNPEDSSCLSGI

B1: S1A-AA-Cyno (anti-Cyno CD38 mAb) (antibody, V domains shown)
VH: QLLESGGGLVQPGGSLRLSCAASGFTFDDYGMSWVRQAPGKGLEWVSDISWNGGKTHYVDSVKGQFTISRDNSKNTLYLQMNSLRAEDTAVYYCARGSLFHDSSGFYFGHWGQGTLVTVSS
VL: QSVLTQPPSASGTPGQRVTISCSGSSSNIGDNYVSWYQQLPGTAPKLLIYRDSQRPSGVPDRFSGSKSGTSASLAISGLRSEDEADYYCQSYDSSLSGSVFGGGTKLTVLG
modifications: VivoTag645 dye label in the flow cytometry assays
notes: Surrogate anti-CD38 human monoclonal IgG1 antibody; VivoTag645-labeled in flow cytometry; also called SIA-AA-Cyno; S1A-AA-Cyno CD38
Q: Does B1 bind [1]?
A: binds

Q: And the “EC50 (read off the curve)” value [2]?
A: ~0.8 nM
